# From the RNAGym collection of RNA variant scans (doi:10.1073/pnas.2313332121)
# B1: TPR t1 (parent)
# chain: GACCAAUCUGCCCUCAGAGCUCGAGAACAUCUUCGGAUGCAGAGGAGGCAGGCUUCGGUGGCGCGAUAGCGCCAACGUCCUCAACCUCCAAUGCAUCCCACCACAUGAUGAUGCCUGAAGAGCCUUGGUUUUUUG
# Variants of: B1
# Assay: polymerase ribozyme fitness, log enrichment relative to wild type (log ratio); higher = more active; in vitro selection for triplet polymerase activity
# How it was run: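 To select mutant libraries of each subunit of a heterodimeric triplet polymerase ribozyme, built by PCR and transcribed, each was annealed with a biotinylated primer, partner subunit and triplets, then incubated frozen at −7 °C. Extended constructs were gel-excised, captured on streptavidin beads and amplified by RT-PCR, in one round carried out in triplicate. Illumina sequencing of input and output libraries kept genotypes with ≥10 input reads and ≥1 read per output. Fitness is the base-2 logarithm of genotype enrichment relative to wild-type enrichment, from inverse-variance-weighted replicate averages.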
row,Variant,polymerase ribozyme fitness (log ratio)
1,C15G C34A,-5.11
2,U14G G71A G120C,-0.108
3,C13U G39A G58U C79G C97U,-2.64
4,C15A C88U C123U,-1.37
5,C15A A46C A84C A91U,-4.15
6,C15G C62U,-1.91
7,U14C G60C C64A U109G,-6.09
8,U14G U54A G61C,-2.7
9,U14C C80U,-2.7
10,C13U G93A C114G,-2.39
11,U14C G57A C97U,-3.84
12,C15A A46C G52U C56U C115G,-6.86
13,C15G G117C,-3.41
14,U14A G48A C56U G117U,-5.41
15,U14A G61U U81A C97U,-3.36
16,C15G A16C G51U G61U G71C C79A U112G,-6.41
17,U14G C22U A29G G61A C124G U129C,-4.06
18,C15U C82G A108G A111G A121C,-6.58
19,C13U C123U U132A,1.91
20,U14G C73U A90G,1.59
21,C15G U32C C49U U87G C123A,-3.12
22,C15G G120C,-0.975
23,U14A C70A,-4.09
24,C15U C70U G71A,-1.62

row,Variant,polymerase ribozyme fitness (log ratio)
1,C15U A50U G120C,-0.665
2,C15G C53G C72A U81A G120C C123G,-2.32
3,C15U C56U,-1.21
4,U14A U116A A121G,0.0546
5,C13U U33G G69U C104G G120A U125C,-6.78
6,C15A C88U,-2.17
7,C15A G61A,-2.09
8,C15A G61C,-4.23
9,U14A U54A C56U U130G,-3.42
10,C15U C22G G61C C114G,-7.09
11,C15A G69C,-3.57
12,C15A G63A,-2.56
13,C13U U55G C79U,0.324
14,C15A G120A,0.181
15,U14A G120A,-0.235
16,C13U C53G C56A G65A,-7.29
17,C15G G63A U116G,-3.64
18,U14A A29G G113A,-5.5
19,U14G G48U G60U,-2.56
20,C15G C72U,-3.01
21,C13U G61C,-1.59
22,U14C U78A C80A,-4.98
23,C15U A27U,-4.81
24,C15G A46G C56G,-4.02

row,Variant,polymerase ribozyme fitness (log ratio)
1,U14A U32C U87A C101A,-3.54
2,C15A G63U C72U U129G U131C,-4.85
3,C15G A29G C88G,-3.43
4,C15U C99U C102A G113U A118G,-7.09
5,C15U A95U,-2.49
6,C15U A66G G71A C98A G113U,-7.64
7,C13U C40A G120A U131G,-0.101
8,U14A C56G,-3.51
9,U14C A18U G48U G71A,-6.1
10,C13U U55G A91G,-0.322
11,C15G G60C U130C,-1.49
12,U14A G36A C56U,-3.35
13,C13U G60C,-0.502
14,C15A G63C C88U,-3.01
15,C15A G48U A50G C97U,-4.67
16,C15A A46U G117U C124U U132C,-0.364
17,C13U G19U G52U,-2.98
18,C15A G61U C89U G122U C124G G135A,-0.759
19,U14A G63C C82U U132A,-3.33
20,C13U G19U G52U C64U,-3.78
21,U14A A18C G113A C123U,-4.67
22,U14C C40G C49G,-3.41
23,U14C U55C G117U U133G,-5.59
24,U14A G60U U78C,-3.65

row,Variant,polymerase ribozyme fitness (log ratio)
1,C13U G110U,-1.02
2,C13U C76A,-0.633
3,U14G G69A A90C U112A G128A,-6.5
4,U14A C49U G52U C76A,-4.51
5,U14A C70G G77C U112C A119G U131G,-3.76
6,C15G G110A,-3.78
7,C15U C73U C94A A111C,-2.53
8,U14A C70G U125A,-4.4
9,C13U C64U,0.138
10,C13U C56G U59G A95C,-2.3
11,C15A A37U G39A G42U A90U,-3.14
12,U14G C80U C102U C123G,-1.69
13,C15A A37U,-2.28
14,U14A A18U C31G U38G G107A C124A,-6.73
15,U14A C115U,-3.52
16,C13U C49U,-0.549
17,U14G G36C,-3.92
18,C13U C123U,1.41
19,C13U U14A A27U G47C,-6.21
20,C15G A118U U131A,-1.47
21,C15A U33A G42C U78C C79U A111G,-6.15
22,C15U C56G A90C G93A G117U G127A,-3.28
23,C15U C34G C53U C114U,-5.11
24,C13U C40U,-0.246

row,Variant,polymerase ribozyme fitness (log ratio)
1,C13U C40A,-0.359
2,C13U G19C G48U,-3.4
3,C15A C70A,-2.47
4,C15A C70U,-2.96
5,U14A A41C,-4.27
6,U14G A41C A74U A84C,-3.77
7,C15U C79U A111U A121U,-3.53
8,C15A C20A A118U,-3.93
9,C13U G39U G61C,-1.9
10,C13U U55A G61C A84U C85G A95G U125G G128U,-3.92
11,U14G G60A G117U,-5.67
12,C15U C114A,-3.36
13,U14A G45A G110U U112C,-4.2
14,C13U G42U C70U A121C,0.0681
15,U14A C53G C70U C72G,-4.88
16,C13U G45U G60C C82U,-0.444
17,U14C G47C,-2.99
18,C13U G60C C82U U96G,-1.02
19,C13U C73G A83G,-1.22
20,C15A A41U,-3.45
21,U14G G110A U130A,-3.04
22,C15U C56G G60U U78G U92A,-6.42
23,C15U C72A C82U,-1.42
24,U14A C85A C89G C123U,-3.2

row,Variant,polymerase ribozyme fitness (log ratio)
1,C13U U21A A27G G61C C99U,-6.29
2,C15A A37G C79G,-3.88
3,C13U U59C C70G,-4.01
4,U14A C22A C101A U116G C124U,-5.17
5,C15U A16U C76A C115A C123A U130C,-5.56
6,U14A C49U G52U A121U U125A,-1.22
7,C13U C82G A90U C104A,-5.14
8,C15U C22G U54G G71U G93A G122A C123U,-4.87
9,C13U G35A C86G,-3.98
10,U14G A37G G42A G77A,-4.88
11,U14C A46U C62U U125A,-3.37
12,C13U G44A A50C G63A C85A,-3.07
13,C13U G47C C73A C99U,-4.72
14,C15G C115A,-2.88
15,C15G A16U G69C,-4.45
16,U14G G48A C64U U116A C123G U131C,-1.29
17,C13U U112C,1.07
18,C15G C70U C82G C88A,-4.4
19,C15A G36A C72U U116A G120U,-4.34
20,U14G G51A G113A G120A A121G,-2.87
21,C15G U112A,-1.44
22,C13U C62U G63C U112A,-0.823
23,C15G G52U U87G,-3.21
24,C15A G52A G117U,0.0979

row,Variant,polymerase ribozyme fitness (log ratio)
1,C13U G63A C64U,-4.34
2,C13U C34U A111C C124U,-5.41
3,U14G C20U C22G G23C U33C U38G C62U U112C A118G G127A,-6.3
4,C13U U92C C104U,-1.33
5,C15A U78A,-2.6
6,C13U C34A U54A U78C U112A G122C,-3.05
7,C15A G47U G61U G110A,-3.43
8,C15A C82A,-3.12
9,C13U G93C,-0.682
10,C15U A50U C76U U78A,-3.61
11,C13U U30C C56U A121C U130G,-1.57
12,C13U G44U C56A,-1.59
13,U14C A43G,-3.2
14,C15A C49G,-2.46
15,C13U G117A,-1.27
16,U14G C56U C70A,-5.19
17,C13U G113U,-2.4
18,C13U U21C C80U A90U,-1.82
19,U14G U129G,-3.21
20,C15A G47U G61U,-3.15
21,C15G C85U,-3.82
22,C15A A41U G60C U133A,-3.25
23,C13U C40G G42A C79A,-4.76
